Experimental data as given in US20150274826A1 (ARCH ONCOLOGY, published 2015).

T1: pig CD47 (pig, UniProt Q9GKE8 19-303)
T1 construct: whole, on cells; also called CD47 on porcine RBCs
T1 sequence (looked up): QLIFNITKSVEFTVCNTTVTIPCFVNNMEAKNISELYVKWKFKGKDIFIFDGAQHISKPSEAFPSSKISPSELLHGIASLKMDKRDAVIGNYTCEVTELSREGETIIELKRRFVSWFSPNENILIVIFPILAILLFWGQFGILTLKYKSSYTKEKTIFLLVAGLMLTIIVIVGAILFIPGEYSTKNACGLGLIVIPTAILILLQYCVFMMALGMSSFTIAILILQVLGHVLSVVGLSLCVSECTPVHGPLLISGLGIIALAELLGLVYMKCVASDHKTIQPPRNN

T2: mouse CD47 (mouse, UniProt Q61735 19-303)
T2 construct: whole, on cells; also called CD47 on mouse RBCs; CD47 on 4T1 cells
T2 sequence (looked up): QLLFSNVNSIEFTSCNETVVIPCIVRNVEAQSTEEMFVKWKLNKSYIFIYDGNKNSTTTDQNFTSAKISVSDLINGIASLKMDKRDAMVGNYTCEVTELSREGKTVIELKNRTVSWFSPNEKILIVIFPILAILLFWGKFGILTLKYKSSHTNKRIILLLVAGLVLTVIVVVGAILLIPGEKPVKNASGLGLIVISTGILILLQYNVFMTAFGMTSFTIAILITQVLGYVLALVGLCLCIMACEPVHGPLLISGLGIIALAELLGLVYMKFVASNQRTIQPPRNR

T3: rat CD47 (rat, UniProt P97829 19-303)
T3 construct: whole, on cells; also called CD47 on rat RBCs
T3 sequence (looked up): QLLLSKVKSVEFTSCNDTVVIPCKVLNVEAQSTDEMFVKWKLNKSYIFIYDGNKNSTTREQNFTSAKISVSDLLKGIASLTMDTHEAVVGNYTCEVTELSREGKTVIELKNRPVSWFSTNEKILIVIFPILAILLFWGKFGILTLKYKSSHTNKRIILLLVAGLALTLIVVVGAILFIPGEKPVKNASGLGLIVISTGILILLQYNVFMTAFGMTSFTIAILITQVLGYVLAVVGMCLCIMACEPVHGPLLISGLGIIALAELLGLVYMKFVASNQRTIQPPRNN

T4: dog CD47 (dog, UniProt A0A8I3PM61 19-310)
T4 construct: also called CD47 on dog RBCs
T4 sequence: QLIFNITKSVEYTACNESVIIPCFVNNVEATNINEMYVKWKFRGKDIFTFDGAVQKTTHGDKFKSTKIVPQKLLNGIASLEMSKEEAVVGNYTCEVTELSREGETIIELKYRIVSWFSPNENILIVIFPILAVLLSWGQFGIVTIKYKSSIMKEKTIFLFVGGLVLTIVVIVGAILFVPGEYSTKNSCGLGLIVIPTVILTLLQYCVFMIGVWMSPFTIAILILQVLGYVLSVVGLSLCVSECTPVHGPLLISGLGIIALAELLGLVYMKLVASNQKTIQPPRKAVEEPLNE


Columns and labels:
[1] = target: T1, pig CD47; assay: flow cytometry on RBCs, CHO supernatant 10 ng/ml
Summary of the method: (§1)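 RBCs incubated 60 min on ice with antibody supernatants at 10 ng/ml in PBS pH 7.2, 2.5 mM EDTA. Binding detected with FITC anti-human secondary (1 h, ice) by flow cytometry; fluorescence expressed relative to chimeric VxP037-01 reference.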

[2] = target: T2, mouse CD47; assay: flow cytometry on RBCs, CHO supernatant 10 ng/ml
Summary of the method: as §1

[3] = target: T3, rat CD47; assay: flow cytometry on RBCs, CHO supernatant 10 ng/ml
Summary of the method: as §1

[4] = target: T4, dog CD47; assay: flow cytometry on RBCs, CHO supernatant 10 ng/ml
Summary of the method: as §1

[5] = target: T5, human CD47 (human, UniProt Q08722 19-323); assay: flow cytometry on RBCs, CHO supernatant 10 ng/ml
T5 construct: whole, on cells; also called CD47 on human RBCs; CD47 on OV10 cells
T5 sequence (Q08722 19-323): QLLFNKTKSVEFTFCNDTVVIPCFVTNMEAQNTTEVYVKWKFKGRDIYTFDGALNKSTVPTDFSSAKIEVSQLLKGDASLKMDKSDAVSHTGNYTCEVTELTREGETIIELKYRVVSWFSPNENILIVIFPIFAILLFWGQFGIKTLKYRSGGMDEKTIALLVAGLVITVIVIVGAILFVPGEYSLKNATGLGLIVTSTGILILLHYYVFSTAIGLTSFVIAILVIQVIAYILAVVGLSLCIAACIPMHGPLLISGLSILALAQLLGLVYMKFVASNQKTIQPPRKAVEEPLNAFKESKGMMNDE
Summary of the method: as §1

[6] = target: T5, human CD47; assay: flow cytometry on human RBCs, non-linear fit of median fluorescence
Procedure: (§2) RBCs are incubated for 60 minutes on ice with tissue culture supernatants containing the secreted humanized antibodies at a concentration of 10 ng/ml in a solution of phosphate buffered saline, pH 7.2, 2.5 mM EDTA (PBS+E), or with various concentrations of purified antibodies. Cells are then washed with cold PBS+E, and incubated for an additional hour on ice with FITC labeled donkey anti-human antibody (Jackson Immuno Research Labs, West Grove, Pa.; Catalogue #709-096-149) in PBS+E. Cells are then washed with PBS+E, and antibody binding is analyzed using a BD FACSAria Cell Sorter (Becton Dickinson) or a C6 Accuri Flow Cytometer (Becton Dickinson). Antibody binding is quantitated by comparison of mean fluorescence values relative to that of chimeric antibody >VxP037-01LC (SEQ ID NO:7))/>VxPO37-01HC (SEQ ID NO:57). The mean fluorescence value for each antibody is divided by the mean fluorescence value for the chimeric antibody.

[7] = target: T5, human CD47; assay: flow cytometry on human RBCs, apparent Kd, non-linear fit
Procedure: as §2

[8] = target: T2, mouse CD47; assay: cell-based ELISA on mouse 4T1 cells, apparent Kd
Procedure: (§3) OV10 cells are grown in IMDM medium containing 10% heat inactivated fetal bovine serum (BioWest; S01520) and 4T1 cells are grown in RMPI medium containing 10% heat inactivated fetal bovine serum (BioWest; S01520). One day before assay, 3×10⁴ cells are plated in 96 well cell bind plates (Corning #3300, VWR #66025-626) so that they are 95-100% confluent at the time of assay. Cells are washed and various concentrations of purified antibodies added in either IMDM or RPMI at 37° C. for 1 hour in […]. Cells are then washed with media and incubated for an additional hour at 37° C. with HRP labeled secondary anti-human antibody (Promega) diluted 1/2500 in media. Cells are washed three times with PBS, and the peroxidase substrate 3,3′,5,5′-tetramethylbenzidine is added (Sigma; Catalog #T4444). Reactions are terminated by the addition of HCl to 0.7N, and absorbance at 450 nm is determined using a Tecan model Infinite M200 plate reader. The apparent binding affinities of these clones to human and mouse cells is determined by non-linear fits (Prism GraphPad software). […] Agglutination of human RBCs is assessed following incubation of human RBCs with various concentrations of humanized blocking only clones. Blood is diluted (1:50) and washed 3 times with PBS/EDTA/BSA. RBCs are added to U-bottomed 96 well plates with equal volumes of the antibodies (75 μl) and incubated for 3 hrs at 37° C. and overnight at 4° C.

[9] = target: T5, human CD47; assay: cell-based ELISA on human OV10 cells, apparent Kd
Procedure: as §3

Binder	mean fluorescence relative to chimeric antibody [1] [ratio]	mean fluorescence relative to chimeric antibody [2] [ratio]	mean fluorescence relative to chimeric antibody [3] [ratio]	mean fluorescence relative to chimeric antibody [4] [ratio]	mean fluorescence relative to chimeric antibody [5] [ratio]	Kd [6] [µg/mL]	Kd [7] [nM]	Kd [8] [nM]	Kd [9] [nM]
Clone 13 (pVxK7b-037-hum13-LC / pVxK7b-037-hum13-HC) (antibody, human IgG1, kappa, also called Cl 13) heavy: not shown light: DIVMTQTPLSLPVTPGEPASISCRSSQSLVHSNGNTYLHWYQQKPGKAPKLLIYKVSYRFSGVPDRFSGSGSGTDFTLKISRVEAEDVGVYYCSQNTHVPRTFGQGTKVEIKRTVAAPSVFIFPPSDEQLKSGTASVVCLLNNFYPREAKVQWKVDNALQSGNSQESVTEQDSKDSTYSLSSTLTLSKADYEKHKVYACEVTHQGLSSPVTKSFNRGEC	1.4	1.3	3.1	1	1.2	0.0864	0.58	–	–
Clone 1.1 (hum01 IgG1 N297Q) (antibody, Fc mutant of Clone 1, IgG1 N297Q; also called Cl 1.1) heavy: QVQLQESGPGLVKPSQTLSLTCTVSGYTFTNYYVFWVRQARGQRLEWIGDINPVNGDTNFNEKFKNRVTISADKSISTAYLQWSSLKASDTAMYYCARGGYTMDYWGQGTLVTVSSASTKGPSVFPLAPSSKSTSGGTAALGCLVKDYFPEPVTVSWNSGALTSGVHTFPAVLQSSGLYSLSSVVTVPSSSLGTQTYICNVNHKPSNTKVDKKVEPKSCDKTHTCPPCPAPELLGGPSVFLFPPKPKDTLMISRTPEVTCVVVDVSHEDPEVKFNWYVDGVEVHNAKTKPREEQYQSTYRVVSVLTVLHQDWLNGKEYKCKVSNKALPAPIEKTISKAKGQPREPQVYTLPPSR light: DIVMTQTPLSLPVTPGEPASISCRSSQSLVHSNGNTYLHWYQQKPGKAPKLLIYKVSYRFSGVPDRFSGSGSGTDFTLKISRVEAEDVGVYYCSQNTHVPRTFGQGTKVEIKRTVAAPSVFIFPPSDEQLKSGTASVVCLLNNFYPREAKVQWKVDNALQSGNSQESVTEQDSKDSTYSLSSTLTLSKADYEKHKVYACEVTHQGLSSPVTKSFNRGEC	–	–	–	–	–	0.307	2.04	0.132	0.148
Clone 13.1 (hum13 IgG1 N297Q) (antibody, Fc mutant of Clone 13, IgG1 N297Q) heavy: EVQLVQSGAEVKKPGESLRISCKGSGYTFTNYYVFWIRQSPSRGLEWLGDINPVNGDTNFNEKFKNRVTITADKSTSTAYMELSSLRSEDTAVYYCARGGYTMDYWGQGTLVTVSSASTKGPSVFPLAPSSKSTSGGTAALGCLVKDYFPEPVTVSWNSGALTSGVHTFPAVLQSSGLYSLSSVVTVPSSSLGTQTYICNVNHKPSNTKVDKKVEPKSCDKTHTCPPCPAPELLGGPSVFLFPPKPKDTLMISRTPEVTCVVVDVSHEDPEVKFNWYVDGVEVHNAKTKPREEQYQSTYRVVSVLTVLHQDWLNGKEYKCKVSNKALPAPIEKTISKAKGQPREPQVYTLPPSR light: DIVMTQTPLSLPVTPGEPASISCRSSQSLVHSNGNTYLHWYQQKPGKAPKLLIYKVSYRFSGVPDRFSGSGSGTDFTLKISRVEAEDVGVYYCSQNTHVPRTFGQGTKVEIKRTVAAPSVFIFPPSDEQLKSGTASVVCLLNNFYPREAKVQWKVDNALQSGNSQESVTEQDSKDSTYSLSSTLTLSKADYEKHKVYACEVTHQGLSSPVTKSFNRGEC	–	–	–	–	–	0.183	1.21	0.0867	0.0886
